From patent US20170210824A1 (SALK INSTITUTE FOR BIOLOGICAL STUDIES, published 2017) come the findings set out here.

*1 amine or outer side, *2 acyl side, *3 side chain or, on linkers, in order; H or OH if unused. Where no end group is shown, it is not given here. [ ]: non-standard residue; d: D form. 3‑pTza = 3-phosphoryltriazolylalanine, non-hydrolysable phosphonate triazole analogue of 3-phosphohistidine, O=C([C@H](Cn1cc(P(=O)(O)O)nn1)N[*:1])[*:2]; pY = N[C@@H](Cc1ccc(OP(=O)(O)O)cc1)C(=O)O

Assay [1] deals with T1, Nck pY105 peptide (CGERLpYDLNMPAYVK).
T1 construct: also called pTyr (NCK) peptide; pTyr peptide (Nck pY105)
T1 peptide: CGERL[pY]DLNMPAYVK
In words: pTyr peptide dot blot.

Assay [2] addresses T2, Nck Y105 peptide (CGERLYDLNMPAYVK).
T2 construct: also called unphosphorylated Nck peptide
T2 peptide: CGERLYDLNMPAYVK
In words: pTyr peptide dot blot.

For assay [3], the target named is T3, Eck (Ephrin A2) pY588 peptide (CLKPLKTpYVD).
T3 construct: also called Eck/EphA2 pTyr peptide
T3 peptide: CLKPLKT[pY]VD
In words: pTyr peptide dot blot.

Assay [4] concerns the target T4, Eck (Ephrin A2) Y588 peptide (CLKPLKTYVD).
T4 construct: also called unphosphorylated Eck peptide
T4 peptide: CLKPLKTYVD
In words: pTyr peptide dot blot.

Assay [5] addresses T5, FAK pY397 peptide (AVSVSETDDpYAEIIDEEDTYT) (phosphotyrosine at position 10 (pY397)).
T5 construct: also called FAK pTyr peptide
T5 peptide: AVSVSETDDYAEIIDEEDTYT
In words: pTyr peptide dot blot.

For assay [6], the target named is T6, Peptide-1C (ACLY-like H760, 3-pTza) (N-terminus assumed; SMILES C[C@H](N)C(=O)NCC(=O)N[C@@H](C)C(=O)NCC(=O)N[C@@H](Cn1cc(P(=O)(O)O)nn1)C(=O)N[C@@H](C)C(=O)NCC(=O)N[C@@H](C)C(=O)NCC(N)=O).
T6 construct: also called AGAG-3-pTza-AGAG; A/G motif peptide (based on ACLY)
T6 peptide: AGAG[3‑pTza]AGAG-NH2
In words: 3-pTza peptide dot blot array. The method, then: (§1) The 3-pHis antibodies bound only the 3-pTza peptides and the 1-pHis antibodies bound only the 1-pTza peptides, regardless of sequence (FIG. 4A). Identical membranes were probed with 1-pHis mAbs as part of our screening process to select mAbs with the broadest sequence recognition (FIG. 4B). […] 3-pHis mAb SC39-4 was able to detect all 3-pTza peptides down to 800 pg; however, binding to the KCa3.1 peptide was relatively poor (100 ng). […] SC44 detected the A/G motif peptide (based on ACLY) and the immunizing peptide library down to 160 pg and 800 pg respectively, confirming its sequence bias.
(§2) pTza peptide dot blot arrays: 1-pTza, 3-pTza or His was incorporated into synthetic peptides of defined sequences from mammalian proteins with mapped pHis sites. The peptides used were as follows: ACLY-like H760 (AGAG-X-AGAG, SEQ ID NO: 62), PGAM H11 (VLIR-X-GESA, SEQ ID NO: 63), NME1 H118 (RNII-X-GSDS, SEQ ID NO: 64), Histone H4 H18 (GAKR-X-RKVL, SEQ ID NO: 65), KCa3.1 H358 (VRLK-X-RKLR, SEQ ID NO: 66) and GNB1 H266 (MTYS-X-DNII, SEQ ID NO: 67) where X=His, 1-pTza or 3-pTza. Peptides were dissolved in water at a stock concentration of 1 mg/ml. 1:5 serial dilutions (500, 100, 20, […] ng/ul) were prepared for each peptide and 1 ul of each dilution was spotted on nitrocellulose membrane and allowed to dry for 1-2 hr at RT. […] Immunoblotting was performed as described above.

The target in assay [7] is T7, Peptide-2C (PGAM H11, 3-pTza) (mammalian, N-terminus assumed; SMILES …).
T7 construct: also called VLIR-3-pTza-GESA; PGAM peptide
T7 peptide: VLIR[3‑pTza]GESA-NH2
In words: 3-pTza peptide dot blot array. The method, then:
as §1, §2

The target of assay [8] is T8, Peptide-3C (NME1 H118, 3-pTza) (mammalian, N-terminus assumed; SMILES …).
T8 construct: also called RNII-3-pTza-GSDS
T8 peptide: RNII[3‑pTza]GSDS-NH2
In words: 3-pTza peptide dot blot array. The method, then:
as §1, §2

The target in assay [9] is T9, Peptide-4C (Histone H4 H18, 3-pTza) (mammalian, N-terminus assumed; SMILES …).
T9 construct: also called GAKR-3-pTza-RKVL
T9 peptide: GAKR[3‑pTza]RKVL-NH2
In words: 3-pTza peptide dot blot array. The method, then: as §1, §2

Assay [10] has as its target T10, mammalian SCS (succinyl-CoA synthetase), 3-pHis on H299 (mammalian, UniProt P53597 41-346, 3-phosphohistidine at H299).
T10 construct: also called Phospho-SCS
In words: immunoblot of mammalian cell lysates. The method, then: (§3) Immunoblotting with anti-pHis antibodies: In general, immunoblotting with anti-pHis antibodies was performed with modifications to standard procedures to help preserve pHis for detection. Buffers were adjusted to pH 8-9 to stabilize pHis and methods were modified to avoid heating samples. Protein samples were prepared in pH 8.8 sample buffer (5×=10% SDS, 250 mM Tris-HCl, pH 8.8, 0.02% Bromophenol blue, 50% glycerol, 50 mM EDTA, 500 mM DTT) for electrophoresis. Mammalian whole cell lysates were prepared by rinsing 70-100% confluent 10 cm² dishes twice with 5 ml cold TD buffer (TBS −/−, pH 8). Cells were scraped directly into 2× pH 8.8 sample buffer, incubated on ice and a cup horn sonicator was used (3-5×5 sec bursts) to disrupt cells and shear DNA. Lysates were clarified by centrifugation (14,000×g for 5-15 min at 4° C.) and analyzed immediately using freshly prepared Bis-Tris polyacrylamide minigels with a modified, pH 8.8 stacking gel and either 10% or 12.5% resolving gels. Electrophoresis buffer recipes were as follows: Running Buffer: (1×20 L, pH 8.5) 20 g SDS, 60 g Trizma Base, 288 g glycine, dH₂0 to 20 L, Transfer Buffer: (1×4 L, pH 8.5) 56.7 g glycine, 4 g SDS, 12 g Trizma Base, 800 ml MeOH, dH₂0 to 4 L. All electrophoresis steps were performed at 4° C. and samples were resolved at 90-100V for 2-3 hr. […]

Assay [11] concerns the target T11, ACLY (ATP-citrate lyase), 3-pHis on H760 (mammalian, UniProt P53396 1-1101, 3-phosphohistidine at H760).
T11 sequence (looked up): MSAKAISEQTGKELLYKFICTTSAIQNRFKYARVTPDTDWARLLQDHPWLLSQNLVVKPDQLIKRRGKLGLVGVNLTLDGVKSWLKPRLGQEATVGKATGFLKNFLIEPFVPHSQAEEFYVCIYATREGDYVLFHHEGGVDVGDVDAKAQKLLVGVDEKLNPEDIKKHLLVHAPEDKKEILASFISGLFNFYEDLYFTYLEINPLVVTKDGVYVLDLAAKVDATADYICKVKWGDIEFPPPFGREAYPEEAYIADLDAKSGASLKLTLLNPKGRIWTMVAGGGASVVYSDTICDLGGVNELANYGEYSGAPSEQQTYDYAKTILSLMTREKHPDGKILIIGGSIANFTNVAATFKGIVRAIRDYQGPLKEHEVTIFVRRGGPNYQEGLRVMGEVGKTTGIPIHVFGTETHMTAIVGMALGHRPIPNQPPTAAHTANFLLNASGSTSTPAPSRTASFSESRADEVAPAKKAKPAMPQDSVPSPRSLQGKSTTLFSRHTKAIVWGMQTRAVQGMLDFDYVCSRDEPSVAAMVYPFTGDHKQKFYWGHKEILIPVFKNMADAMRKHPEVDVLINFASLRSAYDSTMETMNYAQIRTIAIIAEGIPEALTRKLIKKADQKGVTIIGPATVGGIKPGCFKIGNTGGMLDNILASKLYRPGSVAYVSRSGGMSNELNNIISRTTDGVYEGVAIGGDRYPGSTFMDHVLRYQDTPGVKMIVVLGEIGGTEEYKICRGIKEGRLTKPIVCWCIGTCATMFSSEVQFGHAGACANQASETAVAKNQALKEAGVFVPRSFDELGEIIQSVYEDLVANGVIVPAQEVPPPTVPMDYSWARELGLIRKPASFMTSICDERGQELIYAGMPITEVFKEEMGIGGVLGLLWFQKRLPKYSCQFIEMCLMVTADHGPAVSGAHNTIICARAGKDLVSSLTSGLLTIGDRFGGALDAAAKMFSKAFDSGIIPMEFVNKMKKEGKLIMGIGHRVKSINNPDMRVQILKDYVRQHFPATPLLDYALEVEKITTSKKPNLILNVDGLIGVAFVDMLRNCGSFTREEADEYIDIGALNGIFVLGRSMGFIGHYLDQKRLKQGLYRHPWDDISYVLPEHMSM
In words: immunoblot of mammalian cell lysates. The method, then: as §3

Assay [12] has as its target T12, phospho-PGAM (phosphoglycerate mutase with 3-pHis on H11) (human, UniProt P18669 1-254, 3-phosphohistidine at H11).
T12 construct: Used both for the purified recombinant protein and for the endogenous protein in 293 cell lysates; also called pPGAM; in vitro phosphorylated PGAM
In words: immunoblot of HeLa and FLAG-NME1 293 cell lysates. The method, then: FIGS. 6A-6E. 3-pHis Antibody Screening. (FIG. 6A) High throughput, slot blot screening of 3-pHis hybridoma subclones. Cell supernatants containing 3-pHis mAbs were screened as described using lysates from E. coli transformed with GST-PGAM. (FIG. 6B) Representative immunoblots using indicated subclones are shown. E. coli lysates identical to those used in ([…]) were treated with and without heating to 95° C. for 10 min to determine if the detected bands were heat-sensitive. Bacterial (FIG. 6B) and mammalian SCS (FIG. 6C) is detected by 3-pHis mAb SC44-8. (FIG. 6C) Mammalian cell lysates from HeLa and FLAG-NME1 293 cells were probed with mAb SC44-8. Phospho-SCS and ACLY, but not PGAM, is recognized by this mAb. (FIG. 6D) SCS H299 (SEQ ID NO: 69) is aligned with ACLY H760 (SEQ ID NO: 68) to highlight amino acids the flanking the pHis site are identical and have a G-pH-A-H-A motif that is different from the pHis site on PGAM at H11 (SEQ ID NO:70). […]
Immunoblotting with anti-pHis antibodies: In general, immunoblotting with anti-pHis antibodies was performed with modifications to standard procedures to help preserve pHis for detection. […] Lysates were clarified by centrifugation (14,000×g for 5-15 min at 4° C.) and analyzed immediately using freshly prepared Bis-Tris polyacrylamide minigels with a modified, pH 8.8 stacking gel and either 10% or 12.5% resolving gels.
In general terms: In western blotting, separated proteins are transferred to a membrane and probed.

T12 sequence (P18669 whole entry): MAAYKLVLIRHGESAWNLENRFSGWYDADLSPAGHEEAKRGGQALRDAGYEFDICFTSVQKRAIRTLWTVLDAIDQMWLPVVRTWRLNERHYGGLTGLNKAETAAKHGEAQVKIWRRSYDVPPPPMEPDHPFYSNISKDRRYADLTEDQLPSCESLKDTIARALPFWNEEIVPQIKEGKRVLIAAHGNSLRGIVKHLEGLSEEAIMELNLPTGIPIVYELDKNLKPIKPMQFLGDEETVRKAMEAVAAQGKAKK
T10 sequence (P53597 41-346): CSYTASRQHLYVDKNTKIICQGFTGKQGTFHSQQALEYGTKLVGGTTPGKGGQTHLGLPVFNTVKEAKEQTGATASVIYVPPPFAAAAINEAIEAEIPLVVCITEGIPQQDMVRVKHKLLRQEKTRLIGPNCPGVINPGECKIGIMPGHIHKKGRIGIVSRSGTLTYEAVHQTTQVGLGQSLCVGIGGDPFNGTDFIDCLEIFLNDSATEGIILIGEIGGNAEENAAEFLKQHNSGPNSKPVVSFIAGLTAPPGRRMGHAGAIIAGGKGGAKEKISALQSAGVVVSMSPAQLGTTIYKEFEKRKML

B1: 3-pHis mAb SC56-2 (antibody, V domains shown)
VH: SVKESEGGLIKPGGILTLTCTASGFSLSSYGFSWVRQAPGKGLEHIGYLHANGRAYYATWAKSRSTITRNTNLNTVTLQLTSLTAADTATYFCAKIGSVSDVAIWGPGTLVTVSS
VL: DPVMTQTPSSTSAAVGGTVTINCQSSESIYNNKNLAWYQQKPGQSPRRLIYSISTLASGVSSRFKGSGSGTQFTLTISDVQCDDAATYYCVGYYYSGGYYYSGSAAYYAFGGGTEVVVKG
notes: Rabbit hybridoma monoclonal IgG; also called SC56s (subclones of MC56)
B1: the binding result was “no binding” in [1]; “no binding” in [2]; “no binding” in assay [3]; “no binding” in assay [4]; “no binding” in assay [5]; “binds” in assay [6]. The binding result in [7], in assay [8] and in assay [9] was “binds” each time.

B2: 3-pHis mAb SC44-8 (antibody, V domains shown)
VH: ESGRGLVQPGGSLTLTCTASGFSIDSYGFSWVRQAPGKGLEHIGYLTAGGRAFYASWAKSRSTITRNTNENTVTLKMTSLTAADTATYFCAKLGSGNPVAIWGPGTLVTVSS
VL: DPVMTPTPSFTSAAVGGTVTINCQSSQSVWRNKNLAWYQQKPGQPPKRLIYAIATLDSGVPSRFSGSGSGTQFTLTISDVQCDDAATYYCVGHYGSENDAYYAFGGGTEVVVKG
notes: Rabbit hybridoma monoclonal IgG; also called SC44s (subclones of MC44)
Consider B2, for which the binding result in [1] is reported as “no binding”; in assay [2] it was “no binding”; in assay [3], “no binding”; in assay [4], “no binding”; in assay [5] it was “no binding”; in assay [10], “binds”. Further, the binding result in assay [11] is reported as “binds”; in assay [12], “no binding”.
